Laboratory results taken from US20200148732A1 (UNIVERSITY OF COPENHAGEN, published 2020).

Key:
[1] = molecular target: T1, GFP-TONSL D604A (Homo sapiens, UniProt Q96HA7 1-1378); test: GFP immunoprecipitation of GFP-TONSL from transfected HeLa S3 cells, western blot (co-IP; association may be indirect)
T1 construct: also called TONSL D604A / GFP; not shown: N-terminal GFP tag
T1 sequence: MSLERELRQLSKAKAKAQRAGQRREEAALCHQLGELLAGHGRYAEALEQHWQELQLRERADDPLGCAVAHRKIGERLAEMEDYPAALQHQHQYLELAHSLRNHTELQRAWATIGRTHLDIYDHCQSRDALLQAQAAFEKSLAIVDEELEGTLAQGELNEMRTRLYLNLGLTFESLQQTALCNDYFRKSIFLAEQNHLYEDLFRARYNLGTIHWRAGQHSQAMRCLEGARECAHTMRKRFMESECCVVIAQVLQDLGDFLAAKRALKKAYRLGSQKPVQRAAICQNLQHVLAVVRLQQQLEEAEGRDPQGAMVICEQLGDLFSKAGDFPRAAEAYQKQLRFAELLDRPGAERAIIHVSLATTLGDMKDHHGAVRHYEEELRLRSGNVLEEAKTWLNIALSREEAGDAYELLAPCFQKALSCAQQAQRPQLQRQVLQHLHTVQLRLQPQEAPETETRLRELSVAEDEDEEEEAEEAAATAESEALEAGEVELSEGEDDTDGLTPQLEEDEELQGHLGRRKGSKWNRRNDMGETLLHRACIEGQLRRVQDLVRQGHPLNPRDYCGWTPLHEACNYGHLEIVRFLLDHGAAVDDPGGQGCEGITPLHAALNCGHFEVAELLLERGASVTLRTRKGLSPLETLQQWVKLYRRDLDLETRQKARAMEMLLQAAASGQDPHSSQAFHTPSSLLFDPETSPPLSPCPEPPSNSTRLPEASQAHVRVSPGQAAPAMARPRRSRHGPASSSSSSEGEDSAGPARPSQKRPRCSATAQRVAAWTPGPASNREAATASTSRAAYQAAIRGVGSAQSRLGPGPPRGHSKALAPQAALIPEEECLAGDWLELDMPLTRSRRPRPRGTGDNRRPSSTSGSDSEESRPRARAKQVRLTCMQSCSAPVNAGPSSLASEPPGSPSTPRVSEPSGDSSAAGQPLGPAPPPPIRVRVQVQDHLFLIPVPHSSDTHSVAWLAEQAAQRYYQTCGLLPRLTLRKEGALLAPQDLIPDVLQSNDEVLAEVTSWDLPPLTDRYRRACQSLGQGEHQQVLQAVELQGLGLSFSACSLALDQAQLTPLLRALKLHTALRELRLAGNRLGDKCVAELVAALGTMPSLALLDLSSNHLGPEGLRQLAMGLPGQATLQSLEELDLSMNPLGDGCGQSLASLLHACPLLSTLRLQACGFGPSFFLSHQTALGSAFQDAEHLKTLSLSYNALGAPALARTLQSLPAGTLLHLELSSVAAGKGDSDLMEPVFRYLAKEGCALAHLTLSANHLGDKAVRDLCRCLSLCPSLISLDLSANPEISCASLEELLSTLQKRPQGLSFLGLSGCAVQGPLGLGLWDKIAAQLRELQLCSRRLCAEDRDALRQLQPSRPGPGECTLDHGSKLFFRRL

[2] = molecular target: T2, GFP-TONSL E530A (Homo sapiens, UniProt Q96HA7 1-1378); test: as above
T2 construct: also called TONSL E530A / GFP; not shown: N-terminal GFP tag
T2 sequence: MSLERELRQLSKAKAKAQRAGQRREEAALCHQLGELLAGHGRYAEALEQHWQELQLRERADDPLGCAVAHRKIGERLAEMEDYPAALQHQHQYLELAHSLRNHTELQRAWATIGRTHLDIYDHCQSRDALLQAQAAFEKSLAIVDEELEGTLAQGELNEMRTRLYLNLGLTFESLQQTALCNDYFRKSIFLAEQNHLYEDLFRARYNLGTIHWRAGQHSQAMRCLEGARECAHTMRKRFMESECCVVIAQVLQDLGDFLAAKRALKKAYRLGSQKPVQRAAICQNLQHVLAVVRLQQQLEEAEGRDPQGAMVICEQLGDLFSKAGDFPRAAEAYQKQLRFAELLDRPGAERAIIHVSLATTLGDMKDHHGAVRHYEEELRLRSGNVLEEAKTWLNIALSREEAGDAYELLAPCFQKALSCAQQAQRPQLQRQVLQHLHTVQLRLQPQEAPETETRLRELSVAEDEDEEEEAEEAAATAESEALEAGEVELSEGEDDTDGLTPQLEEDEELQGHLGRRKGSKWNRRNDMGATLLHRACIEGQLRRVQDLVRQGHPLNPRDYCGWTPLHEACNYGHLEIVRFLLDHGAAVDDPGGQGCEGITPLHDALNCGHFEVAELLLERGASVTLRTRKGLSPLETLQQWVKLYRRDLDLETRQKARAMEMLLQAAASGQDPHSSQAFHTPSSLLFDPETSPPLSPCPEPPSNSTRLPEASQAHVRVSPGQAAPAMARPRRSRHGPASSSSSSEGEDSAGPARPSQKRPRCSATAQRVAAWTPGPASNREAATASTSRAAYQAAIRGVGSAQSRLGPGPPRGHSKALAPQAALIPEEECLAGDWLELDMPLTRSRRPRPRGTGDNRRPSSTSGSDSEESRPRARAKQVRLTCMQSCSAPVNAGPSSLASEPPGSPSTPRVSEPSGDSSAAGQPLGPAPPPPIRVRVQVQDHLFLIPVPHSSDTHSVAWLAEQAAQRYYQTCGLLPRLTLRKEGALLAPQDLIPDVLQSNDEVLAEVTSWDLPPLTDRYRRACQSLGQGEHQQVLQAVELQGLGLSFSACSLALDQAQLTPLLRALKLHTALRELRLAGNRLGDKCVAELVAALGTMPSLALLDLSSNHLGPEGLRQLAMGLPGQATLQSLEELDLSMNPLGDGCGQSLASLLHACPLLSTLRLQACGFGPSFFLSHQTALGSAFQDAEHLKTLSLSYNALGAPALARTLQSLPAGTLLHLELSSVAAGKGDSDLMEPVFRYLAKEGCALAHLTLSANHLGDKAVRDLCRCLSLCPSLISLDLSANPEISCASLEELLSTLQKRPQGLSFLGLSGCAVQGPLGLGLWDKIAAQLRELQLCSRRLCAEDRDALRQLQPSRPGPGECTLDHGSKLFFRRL

B1: MMS22L (endogenous, in cell extracts) (other, UniProt Q6ZRQ5 1-1243, looked up)
chain: MENCSAASTFLTDSLELELGTEWCKPPYFSCAVDNRGGGKHFSGESYLCSGALKRLILNLDPLPTNFEEDTLEIFGIQWVTETALVNSSRELFHLFRQQLYNLETLLQSSCDFGKVSTLHCKADNIRQQCVLFLHYVKVFIFRYLKVQNAESHVPVHPYEALEAQLPSVLIDELHGLLLYIGHLSELPSVNIGAFVNQNQIKLFPPSWHLLHLHLDIHWLVLEILYMLGEKLKQVVYGHQFMNLASDNLTNISLFEEHCETLLCDLISLSLNRYDKVRSSESLMSDQCPCLCIKELWVLLIHLLDHRSKWFVSESFWNWLNKLLKTLLEKSSDRRRSSMPVIQSRDPLGFSWWIITHVASFYKFDRHGVPDEMRKVESNWNFVEELLKKSISVQGVILEEQLRMYLHCCLTLCDFWEPNIAIVTILWEYYSKNLNSSFSISWLPFKGLANTMKSPLSMLEMVKTCCCDKQDQELYKSSSSYTIFLCILAKVVKKAMKSNGPHPWKQVKGRIYSKFHQKRMEELTEVGLQNFFSLFLLLAAVAEVEDVASHVLDLLNFLKPAFVTSQRALIWKGHMAFLLMYAQKNLDIGVLAEKFSCAFREKAKEFLVSKNEEMVQRQTIWTLLSIYIDGVQEVFETSYCLYPSHEKLLNDGFSMLLRACRESELRTVLSFLQAVLARIRSMHQQLCQELQRDNVDLFVQSSLSAKERHLAAVASALWRHFFSFLKSQRMSQVVPFSQLADAAADFTLLAMDMPSTAPSDFQPQPVISIIQLFGWDDIICPQVVARYLSHVLQNSTLCEALSHSGYVSFQALTVRSWIRCVLQMYIKNLSGPDDLLIDKNLEEAVEKEYMKQLVKLTRLLFNLSEVKSIFSKAQVEYLSISEDPKKALVRFFEAVGVTYGNVQTLSDKSAMVTKSLEYLGEVLKYIKPYLGKKVFSAGLQLTYGMMGILVKSWAQIFATSKAQKLLFRIIDCLLLPHAVLQQEKELPAPMLSAIQKSLPLYLQGMCIVCCQSQNPNAYLNQLLGNVIEQYIGRFLPASPYVSDLGQHPVLLALRNTATIPPISSLKKCIVQVIRKSYLEYKGSSPPPRLASILAFILQLFKETNTDIYEVELLLPGILKCLVLVSEPQVKRLATENLQYMVKACQVGSEEEPSSQLTSVFRQFIQDYGMRYYYQVYSILETVATLDQQVVIHLISTLTQSLKDSEQKWGLGRNIAQREAYSKLLSHLGQMGQDEMQRLENDNT
Q: Does B1 bind [1]?
A: Result: binds

Q: Does B1 bind [2]?
A: Result: binds
